Source: patent publication US20230192845A1

Assays:
[1] = biological target: human CD96 short isoform v2 expressed on CHO cells (human) (UniProt P40200); experiment: FCM on hCD96v2-CHO cells
[2] = biological target: T1, hCD96-humanIgG1 fusion protein (human) (UniProt P40200); experiment: SPR (Biacore), hCD96-hFc captured by anti-huFc
T1 sequence: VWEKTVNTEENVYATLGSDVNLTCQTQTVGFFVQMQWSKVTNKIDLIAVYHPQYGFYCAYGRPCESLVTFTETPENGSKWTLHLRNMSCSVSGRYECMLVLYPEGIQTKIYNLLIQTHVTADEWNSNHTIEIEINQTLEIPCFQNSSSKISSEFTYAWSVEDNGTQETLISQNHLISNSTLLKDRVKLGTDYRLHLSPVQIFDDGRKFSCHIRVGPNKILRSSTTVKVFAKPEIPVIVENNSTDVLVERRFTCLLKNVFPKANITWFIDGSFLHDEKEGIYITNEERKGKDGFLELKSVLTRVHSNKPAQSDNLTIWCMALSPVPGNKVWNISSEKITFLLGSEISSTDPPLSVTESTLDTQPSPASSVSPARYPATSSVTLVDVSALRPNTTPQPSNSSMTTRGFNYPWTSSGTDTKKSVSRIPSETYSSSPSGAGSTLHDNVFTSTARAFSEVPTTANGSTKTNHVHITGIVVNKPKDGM

[3] = biological target: human CD96 short isoform v2 expressed on CHO cells (human) (UniProt P40200); experiment: FCM, inhibition of hCD155-Fc binding to hCD96v2-CHO cells
[4] = biological target: hCD96-HA tagged protein transiently expressed on CHO cells (FRET assay) (human) (UniProt P40200); experiment: FRET between anti-HA-PE and anti-HA-APC by flow cytometry on CHO cells transfected with hCD96-HA; right-hand plot; the left-hand plot of the panel prints FRET 0,10% (taken as the pooled negative control)
[5] = biological target: hCD226-His tagged protein transiently expressed on CHO cells (human) (UniProt Q15762); experiment: FRET between anti-hCD226-PE (DX11) and anti-HA-APC by flow cytometry on CHO cells transfected with hCD96-HA and hCD226-His; right-hand plot; the left-hand plot of the panel prints FRET 0,22% (taken as the pooled negative control)
Chain of hCD226-His tagged protein transiently expressed on CHO cells (human) (Q15762 19-336): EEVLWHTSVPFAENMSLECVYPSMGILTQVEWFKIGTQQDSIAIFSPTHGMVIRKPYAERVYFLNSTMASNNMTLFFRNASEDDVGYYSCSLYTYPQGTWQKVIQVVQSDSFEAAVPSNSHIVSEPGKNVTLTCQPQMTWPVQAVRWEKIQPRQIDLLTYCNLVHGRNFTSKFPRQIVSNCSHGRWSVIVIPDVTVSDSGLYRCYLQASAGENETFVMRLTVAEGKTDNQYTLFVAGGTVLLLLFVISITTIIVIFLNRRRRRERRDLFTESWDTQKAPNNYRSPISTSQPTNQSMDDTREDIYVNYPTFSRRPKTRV

| EC50 [1] [nM] | Maximum binding (delta MFI) [1] [delta MFI] | Kd [2] [nM] | koff [2] [s⁻¹] | kon [2] [M⁻¹ s⁻¹] | IC50 [3] [nM] | Maximal Inhibition Capacity (%) [3] [%] | FRET (% of cells in the FRET gate) [4] [%] | FRET (% of cells in the FRET gate) [5] [%] | Substance |
| --- | --- | --- | --- | --- | --- | --- | --- | --- | --- |
| 1.59 | 283000 | 3.24 | 0.000346 | 107000 | 10.4 | 100 | – | – | NK92.39 (antibody) |
| 3.75 | 543000 | – | – | – | 15.8 | 100 | – | – | clone 628211 (antibody) |
| – | – | – | – | – | – | – | 11.6 | 17.9 | hCD96-HA tagged protein transiently expressed on CHO cells (FRET assay) (from UniProt P40200 22-585) (receptor) |
